Target: T1, N^α-benzoylated peptides of SEQ ID NOs: 2-18 (Rattus norvegicus, UniProt P00763, D194K/E154H/K66E/N146H)
T1 construct: made in house; host or cells: E. coli or yeast (general procedure; the host actually used is not fixed)
T1 sequence (P00763 24-246 K66E/N146H/E154H/D194K): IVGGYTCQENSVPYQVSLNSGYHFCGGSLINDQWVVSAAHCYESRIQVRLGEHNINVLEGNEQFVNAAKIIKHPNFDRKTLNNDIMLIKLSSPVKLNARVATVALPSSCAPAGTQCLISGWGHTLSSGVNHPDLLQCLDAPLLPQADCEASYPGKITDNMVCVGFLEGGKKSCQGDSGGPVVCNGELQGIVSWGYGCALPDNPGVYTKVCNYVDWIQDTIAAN
Test: Influence of the recognition sequence on the rate of reaction catalyzed by the trypsin variant (HPLC, peptide consumption)
Format: biochemical
Details: 1 mM peptide, 20 μM trypsin variant, 100 μM ZnCl2, 0.1 M Pipes/Tris-buffer pH 8.0, 30° C.
Description: Variant trypsin according to the present invention has been tested for catalytic activity upon peptide substrates with different peptide sequences at or close to the cleavage site. The initial rate (v) of peptide consumption is given in nM/min
The N^α-benzoylated peptides of SEQ ID NOs: 2-18 have been synthesized by conventional solid-phase peptide synthesis using Fmoc-chemistry and a preloaded Wang-resin. The respective amino acid building blocks are commercially available and were purchased from various suppliers.
1 ml reaction volume containing 1 mM N^α-benzoylated peptide dissolved in 0.1 M Pipes/Tris-buffer pH 8.0; 20 μM trypsin variant Tn K60E, E151H, N143H, D189K; 100 μM ZnCl2 was stirred at 30° C. After defined time intervals, the reactions were terminated by adding of 1% trifluoroacetic acid in methanol/water (1:1, v/v). The quenched reaction mixtures were analyzed by analytical HPLC. The identity of the final products was verified by mass spectroscopy.

B1: Tn K60E, E151H, N143H, D189K: mutated anionic rat trypsin II, without signal sequence and pro-sequence (SEQ ID NO: 1), with K60E, N143H, E151H, D189K (protein)
chain: T1 sequence (P00763 24-246 K66E/N146H/E154H/D194K)
  cleavage site preference (substrate specificity from initial rates of peptide consumption, FIG. 4): strong preference for a cleavage site comprising L, F or Y in position P1, R or K in position P1′ and His in position P2′

Source: US8927230B2, “C-terminal modification of polypeptides” (EUCODIS Bioscience GmbH, priority 2004, dated 2015)
